This note sets out measurements from PMC7749629.

For this data set, the target named is T1, h-PUS10 (recombinant PUS10 from total HEK293T extract) (human, UniProt Q3MIT2 1-529).
T1 sequence: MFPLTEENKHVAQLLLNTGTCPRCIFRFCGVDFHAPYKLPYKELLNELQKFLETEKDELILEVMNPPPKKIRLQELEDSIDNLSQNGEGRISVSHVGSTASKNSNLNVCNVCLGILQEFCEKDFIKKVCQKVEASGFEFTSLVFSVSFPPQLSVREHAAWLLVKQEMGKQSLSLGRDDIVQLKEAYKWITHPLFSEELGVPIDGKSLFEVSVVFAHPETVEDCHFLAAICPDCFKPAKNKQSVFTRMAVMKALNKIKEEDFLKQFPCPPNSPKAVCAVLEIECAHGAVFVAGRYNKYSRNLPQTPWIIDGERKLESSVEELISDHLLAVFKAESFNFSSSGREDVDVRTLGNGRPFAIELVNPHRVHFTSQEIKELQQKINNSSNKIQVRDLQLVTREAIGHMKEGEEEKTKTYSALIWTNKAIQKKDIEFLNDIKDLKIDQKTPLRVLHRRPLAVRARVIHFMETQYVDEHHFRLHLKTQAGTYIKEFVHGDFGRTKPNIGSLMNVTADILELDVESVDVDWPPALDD
Briefly: EMSA.

B1: mutated tRNAAU-Ala (U59A, G60A; GAAA at 57-60) (structured_RNA)
RNA: GGGGAAUUAGCUCAAAUGGUAGAGCGCUCGCUUAGCAUGCGAGAGGUAGCGGGAUCGAAACCCGCAUUCUCCA
modifications: unmodified transcript
In the case of B1, the binding result is recorded as “binds”.
